Results published in PMC5381946 (PLoS Pathogens, 2017).

Tested on: c-Jun;c-Fos (;)
Experiment: EMSA
Details: EMSA: 10 mM Tris-HCl pH 7.5, 50 mM NaCl, 5 mM MgCl2, 20 min at 37 C, then 20 min with DNA, 5% native TBE-PAGE at 4 C

AP-1 oligonucleotide
IC50 (reduced APE1 + inhibitor C10 (IC50 of the compound, not of DNA)): 17 µM | IC50 (reduced APE1 + inhibitor E3330 (IC50 of the compound, not of DNA)): 36 µM
